In patent US20230348609A1 (WUXI BIOLOGICS SHANGHAI, published 2023):

Experiments:
[1] = target: T1, recombinant human BCMA extracellular domain (human, UniProt Q02223 1-54); test: ELISA, plate coated with 1 ug/mL recombinant extracellular domain
T1 construct: extracellular domain
T1 sequence (looked up): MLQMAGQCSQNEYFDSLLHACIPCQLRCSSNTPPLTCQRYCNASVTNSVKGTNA
Description: (§1) Plate was pre-coated with 1 μg/mL of recombinant human CD40, OX40, 4-1BB, GITR or BCMA extracellular domain in 100 μL coating buffer (0.02 M Na₂CO₃ and 0.18 M NaHCO₃, pH9.2) per well at 4° C. overnight. Next day, the plate was washed with 1×PBST for one time. After 1-hour blocking using 200 μL of 1×PBS/2% BSA, the plate was washed using 1×PBST for 3 times. W3525 was added to the plate at a concentration of 66.7 nM and incubated at ambient temperature for 1 hour. Anti-CD40 antibodies BMK4 and BMK5, anti-OX40 antibody MEDI0562, anti-4-1BB antibody BMS-663513, anti-GITR antibody INCAGN01876 and anti-BCMA antibody EM801 were used as positive controls, respectively. Human IgG2 isotype antibody was used as isotype control. After incubation, the plate was washed using 1×PBST for 3 times. HRP-labeled goat anti-human IgG antibody diluted in 1×PBS/2% BSA at a ratio of 1:5000 was added and incubated for 1 hour. After washing with 1×PBST for 6 times, the color was developed by dispensing 100 μL of TMB substrate, and then reaction was stopped by adding 100 μL of 2M HCl. Absorbance was read at 450 nm and 540 nm using a microplate spectrophotometer. GraphPad Prism was used to plot the antibody concentration (x-axis) versus absorbance (y-axis). All samples were tested in duplicate.

[2] = target: T2, Human GITR protein (His tag, ECD) (human, UniProt Q9Y5U5 26-162); test: as above
T2 construct: extracellular domain; Bought protein
T2 sequence (looked up): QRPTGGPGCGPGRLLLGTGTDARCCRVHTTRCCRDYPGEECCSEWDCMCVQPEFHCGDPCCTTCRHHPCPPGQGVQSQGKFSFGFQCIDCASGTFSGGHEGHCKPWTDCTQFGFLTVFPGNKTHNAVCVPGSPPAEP
Description: as §1

[3] = target: T3, recombinant human OX40 extracellular domain (human, UniProt P43489 29-214); test: as above
T3 construct: extracellular domain
T3 sequence (looked up): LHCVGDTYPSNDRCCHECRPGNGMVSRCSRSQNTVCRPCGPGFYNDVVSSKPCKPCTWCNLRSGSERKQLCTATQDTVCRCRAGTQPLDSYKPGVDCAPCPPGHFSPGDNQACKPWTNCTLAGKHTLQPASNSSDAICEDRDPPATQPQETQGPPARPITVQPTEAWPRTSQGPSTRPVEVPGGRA
Description: as §1

[4] = target: T4, recombinant human 4-1BB extracellular domain (human, UniProt Q07011 24-186); test: as above
T4 construct: extracellular domain
Description: as §1

W352-mPro1.ECD.His = target: T5, W352-mPro1.ECD.His (mouse, UniProt P27512 20-193); test: ELISA, plate coated with 1 ug/mL recombinant CD40 extracellular domain
T5 construct: range 20-193; The ELISA of 3.5 says only 'recombinant mouse CD40 extracellular domain'; also called Mouse CD40 extracellular domain, His tag; mouse CD40; not shown: His tag
Description: as §1
(§2) Plate was pre-coated with 1 μg/mL of recombinant human, cynomolgus monkey, mouse, canine or rat CD40 extracellular domain in 100 μL coating buffer per well at 4° C. overnight. Then the ELISA procedure was performed as described above. Anti-human CD40 antibodies BMK4 and BMK5 were used as positive controls. Human IgG1 and IgG2 isotype antibodies were used as isotype controls.

[5] = target: T6, CD40 protein, rat, recombinant (His tag) (rat, UniProt A6JXD6 20-193); test: as above
T6 construct: Bought protein; also called rat CD40; not shown: C-terminal His tag of the vendor's construct (SinoBiological 80151-R08H)
T6 sequence: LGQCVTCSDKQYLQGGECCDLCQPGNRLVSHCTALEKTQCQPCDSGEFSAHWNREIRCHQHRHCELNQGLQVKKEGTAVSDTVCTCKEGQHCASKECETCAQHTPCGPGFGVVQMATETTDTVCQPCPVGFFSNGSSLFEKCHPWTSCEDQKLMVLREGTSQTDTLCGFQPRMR
Description: as §1, §2

[6] = target: T7, CD40 protein, canine, recombinant (His tag) (canine, UniProt Q7YRL5 21-194); test: as above
T7 construct: extracellular domain; Bought protein; also called canine CD40
T7 sequence (looked up): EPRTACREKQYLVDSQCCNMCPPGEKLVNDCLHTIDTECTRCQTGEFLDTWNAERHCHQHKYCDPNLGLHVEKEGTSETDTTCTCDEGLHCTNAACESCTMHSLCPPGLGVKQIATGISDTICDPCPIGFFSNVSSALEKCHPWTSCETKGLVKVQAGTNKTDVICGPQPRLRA
Description: as §1, §2

[7] = target: T8, human CD40, full-length, on cells (human, UniProt P25942 21-277); test: FACS on A431 cells (human CD40 binding assay); A431 cells
T8 construct: whole, on cells; Transfected full-length CD40 on CHO-K1 and U937 cells; Endogenous CD40 on Raji, A431, Ramos, primary B cells and dendritic cells; also called cell surface human CD40; W352-CHOK1.hPro1.A7
Description: (§3) W352-CHOK1.hPro1.A7 (1×10⁵ cells/well), Raji (1×10⁵ cells/well) or A431 (5×10⁴ cells/well) cells were incubated with various concentrations of W3525 antibody (3-fold serially diluted from 100 nM to 0.0051 nM, or 5-fold serially diluted from 100 nM to 0.00128 nM) at 4° C. for 1 hour. After washing with 1×PBS/1% BSA, the secondary antibody, Alex647-labeled goat anti-human IgG (1:250) or R-PE-labeled goat anti-human IgG (1:150) was added and incubated with cells at 4° C. in dark for 1 hour. Anti-human CD40 antibodies BMK4 and BMK5 were used as positive controls. Human IgG1 and IgG2 isotype antibodies were used as isotype controls. The cells were then washed and re-suspended in 1×PBS/1% BSA. MFI of the cells was measured by a flow cytometer and analyzed by FlowJo. GraphPad Prism was used to plot the log of antibody concentration (x-axis) versus MFI (y-axis). The EC50 values were determined using four-parameter dose-response curve model.
(§4) The binding result of W3525 on W352-CHOK1.hPro1.A7, Raji and A431 cells are shown in FIGS. 1, 2 and 3, respectively.

[8] = target: T8, human CD40, full-length, on cells; test: FACS on Raji cells (human CD40 binding assay); Raji cells
Description: as §3, §4

[9] = target: T8, human CD40, full-length, on cells; test: FACS on W352-CHOK1.hPro1.A7 cells (CHO-K1 with full-length human CD40); W352-CHOK1.hPro1.A7 cells
Description: as §3, §4

[10] = target: T8, human CD40, full-length, on cells; test: FACS competition on W352-CHOK1.hPro1.A7 cells; competitor W352-hpro1L1.ECD.mFc at 5 ug/mL
Description: W352-CHOK1.hPro1.A7 cells were plated in a 96-well plate at a density of 1×10⁵ cells/well. A constant concentration of W352-hPro1L1.EECD.mFc (5 μg/mL) diluted in 1×PBS/1% BSA was added to the cells, followed by serially diluted antibodies (3-fold serially diluted from 60 nM to 0.0274 nM in 1×PBS/1% BSA), and mixed well. The plate was incubated at 4° C. for 1 hour.

W352-hPro1.ECD.His = target: T9, W352-hPro1.ECD.His (human, UniProt P25942 21-193); test: SPR, Biacore 8K; antibody captured by goat anti-human Fc; analyte W352-hPro1.ECD.His; 1:1 model
T9 construct: range 21-193; Also used for the 'recombinant human CD40 extracellular domain' coated in the ELISAs of 3.4 and 3.5; also called Human CD40 extracellular domain, His tag; human CD40 free protein; not shown: His tag
Description: The affinity of W3525 to human CD40 was determined using Biacore 8K. The activator was prepared by mixing 400 mM EDC and 100 mM NHS immediately prior to injection. The CMS sensor chip was activated for 420 s with the activator at a flow rate of 10 μL/min. Goat anti-human Fc IgG (30 μg/mL in 10 mM NaAc, pH 4.5) was then injected to the channels for 420 s at a flow rate of 10 μL/min The chip was deactivated by 1 M ethanolamine-HCl at a flow rate of 10 μL/min for 420 s. After immobilization, the antibody W3525 was diluted to 66.7 nM in running buffer (1×HBS-EP+) and was captured onto the channel Fc4 at a flow rate of 10 μL/min for 30 s. Seven concentrations (0, 1.5625, 3.125, 6.25, 12.5, 25 and 50 nM) of analyte W352-hPro1.ECD.His were injected orderly to the channels at a flow rate of 30 μL/min for an association phase of 90 s, followed by 300 s dissociation. Glycine solution (10 mM, pH 1.5) as regeneration buffer was injected following dissociation phase to regenerate the chip.
Molecular weight of 29 kDa was used to calculate the molar concentration of W352-hPro1.ECD.His.

[11] = target: T10, cynomolgus monkey CD40 on transiently transfected 293F cells (cynomolgus monkey, UniProt G7PG38 21-278); test: FACS on 293F cells transiently transfected with cynomolgus monkey CD40
T10 construct: whole, on cells; also called cell surface cynomolgus monkey CD40
Description: Cynomolgus monkey CD40 transiently transfected 293F cells (2×10⁵ cells/well) were incubated with various concentrations of W3525 (3-fold serially diluted from 200 nM to 0.0102 nM) at 4° C. for 1 hour. After washing with 1×PBS/1% BSA, a secondary antibody, R-PE-labeled goat anti-human IgG (1:150) was added and incubated with cells at 4° C. in dark for 1 hour. The cells were washed and suspended and the MFI and EC50 values were determined as described above.

[12] = target: T8, human CD40, full-length, on cells; test: cell-based or functional assay
[13] = target: T8, human CD40, full-length, on cells; test: cell-based or functional assay; remark: listed apart in the source
[14] = target: T8, human CD40, full-length, on cells; test: cell-based or functional assay; remark: listed apart in the source
W352-cynoPro1.ECD.His = target: T11, W352-cynoPro1.ECD.His (cynomolgus monkey, UniProt G7PG38 21-193); test: SPR, Biacore T200; antibody captured by goat anti-human Fc; analyte W352-cynoPro1.ECD.His
T11 construct: range 21-193; Also used for the 'recombinant cynomolgus monkey CD40 extracellular domain' coated in the ELISA of 3.5; also called Cynomolgus monkey CD40 extracellular domain, His tag; W352-cPro1.ECD.His; not shown: His tag
Description: The affinity of W3525 to cynomolgus monkey CD40 was determined using Biacore T200. The process of immobilization was the same as that of Biacore 8K. The antibody W3525 was diluted to 33.35 nM in running buffer (1×HBS-EP+) and was captured onto Fc2 at a flow rate of 10 μL/min for 60 s. Seven concentrations (0, 1.56, 3.13, 6.25, 12.5, 25 and 50 nM) of analyte W352-cynoPro1.ECD.His were injected orderly to Fc1 and Fc2 at a flow rate of 30 μL/min for an association phase of 240 s, followed by 300 s dissociation. After each cycle, glycine solution (10 mM, pH 1.5) as regeneration buffer was injected to regenerate the chip.
Molecular weight of 29 kDa was used to calculate the molar concentration of W352-cPro1.ECD.His.

T9 sequence (P25942 21-193 limits assumed): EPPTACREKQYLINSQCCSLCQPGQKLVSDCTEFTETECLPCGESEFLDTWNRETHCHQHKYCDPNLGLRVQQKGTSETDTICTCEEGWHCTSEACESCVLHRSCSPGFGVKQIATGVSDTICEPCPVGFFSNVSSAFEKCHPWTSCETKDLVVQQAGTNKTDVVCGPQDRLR
T8 sequence (P25942 21-277): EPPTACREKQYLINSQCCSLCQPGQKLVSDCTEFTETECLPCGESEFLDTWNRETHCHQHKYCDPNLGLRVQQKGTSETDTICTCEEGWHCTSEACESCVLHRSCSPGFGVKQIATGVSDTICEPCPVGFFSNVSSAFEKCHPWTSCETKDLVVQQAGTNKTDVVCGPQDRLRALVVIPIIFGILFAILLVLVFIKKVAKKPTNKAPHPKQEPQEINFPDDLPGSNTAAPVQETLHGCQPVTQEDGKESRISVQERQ
T4 sequence (Q07011 24-186): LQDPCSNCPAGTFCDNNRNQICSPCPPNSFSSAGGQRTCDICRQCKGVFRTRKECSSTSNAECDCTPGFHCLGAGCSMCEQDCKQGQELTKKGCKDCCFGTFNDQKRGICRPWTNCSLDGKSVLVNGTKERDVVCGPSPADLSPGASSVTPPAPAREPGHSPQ
T5 sequence (P27512 20-193 limits assumed): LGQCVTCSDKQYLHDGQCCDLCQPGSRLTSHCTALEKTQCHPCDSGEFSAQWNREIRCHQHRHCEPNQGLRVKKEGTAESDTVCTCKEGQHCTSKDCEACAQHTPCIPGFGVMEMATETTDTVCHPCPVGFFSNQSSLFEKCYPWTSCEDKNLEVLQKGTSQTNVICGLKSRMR

B1: W3525-1.9.16-P5-uIgG2K (antibody, V domains shown)
VH: QVQLVQSGAEVKKPGSSVKVSCKASGDTVSSYGISWVRQAPGQGLEWMGGSIPFFGTPNYAQKFQGRVTFTADESTSTAYMELSSLRSEDTAVYYCARARRGYSYGHYHYYAMDVWGQGTTVTVAS
VL: DTVMTQSPLSLPVTPGEPASISCRSGQSLLHNNAYNYLDWYLQKPGQSPQLLIYLGSNRASGVPDRFSGSGSGTDFTLKISRVEAEDVGVYYCMQALQTPLSFGGGTKVEIKR
notes: Fully human IgG2 kappa with wild-type human IgG2 constant region; also called W3525 antibody; final lead antibody
binding result [1]: no binding (tested: 66.7 nM) | binding result [2]: no binding (tested: 66.7 nM) | binding result [3]: no binding (tested: 66.7 nM) | binding result [4]: no binding (tested: 66.7 nM) | binding result (W352-mPro1.ECD.His): no binding | binding result [5]: no binding | binding result [6]: no binding | EC50 [7]: 160 pM | EC50 [8]: 360 pM | EC50 [9]: 1100 pM | IC50 [10]: 1400 pM | Kd (W352-hPro1.ECD.His): 7120 pM | koff (W352-hPro1.ECD.His): 0.00405 s⁻¹ | kon (W352-hPro1.ECD.His): 569000 M⁻¹ s⁻¹ | EC50 [11]: 2400 pM | EC50, B cell proliferation [12]: 160 pM | EC50, NFκB reporter assay, W352-Ramos.NFκBRE.luc [13]: 1400 pM | EC50, NFκB reporter assay, W352-U937.hPro1.NFκBRE.luc [13]: 1300 pM | EC50, CD54 expression, DC activation assay [14]: 350 pM | EC50, CD80 expression, DC activation assay [14]: 370 pM | EC50, CD83 expression, DC activation assay [14]: 160 pM | EC50, CD86 expression, DC activation assay [14]: 560 pM | EC50, IL-12p40 release, DC activation assay [14]: 470 pM | Kd (W352-cynoPro1.ECD.His): 8470 pM | koff (W352-cynoPro1.ECD.His): 0.00377 s⁻¹ | kon (W352-cynoPro1.ECD.His): 444000 M⁻¹ s⁻¹
